According to article PMC7449243, “An optimized integrin α6‐targeted peptide for positron emission tomography/magnetic resonance imaging of pancreatic cancer and its precancerous lesion” (Clinical and Translational Medicine, 2020):
Positions of bridges follow the written chain, without caps; N, C: chain ends. Residues, ends and D or L forms follow the SMILES beside them. *: point of attachment. NOTA = O=C(O)CN1CCN(CC(=O)O)CCN(CC(=O)*)CC1; PEG4 = NCCOCCOCCOCCOCCC(=O)O

Tests used:
[1] = system: Sw1990 tumors; assay: In vivo blocking assay of Cy5‐RWY by unlabeled peptides; settings: i.v. 6 nmol Cy5‐RWY together with 6 μmol unlabeled peptide; mice bearing Sw1990 tumors
Procedure: FIGURE 1 Increased and poorer prognosis of integrin α6 in PDAC and the optimization of a peptide targeting integrin α6. […] D, The binding affinities of seven Ala‐mutated peptides were analyzed by ELISA. E, The in vivo blocking assays were performed via intravenous injection of 6 nmol of Cy5‐RWY together with 6 μmol of the unlabeled RWY peptide, or its scrambled peptide or a set of its alanine‐scanning mutant peptides into mice bearing Sw1990 tumors. […] F and G, Sw1990 cells were incubated with Cy5‐RWY and Cy5‐S5 at 37°C for 30 min, and the integrin α6‐binding affinities of Cy5‐RWY and Cy5‐S5 were analyzed by flow cytometric analysis (F); the fluorescence intensity of the S5 group presented as relative (1.41 ± 0.03) fold over RWY, indicating a higher tumor cell‐binding ability of S5. H and I To further investigate the in vivo tumor‐binding ability of the S5 peptide, Cy5‐S5, Cy5‐RWY, and Cy5‐CG7C (negative control) were synthesized and used in NIRF.

[2] = biological target: T1, integrin α6 (Homo sapiens, UniProt P23229); assay: Binding of Ala-mutated peptides by ELISA (alanine scanning of RWY); settings: relative to RWY peptide; Figure 1D,E (ELISA and in vivo blocking)
T1 sequence (P23229 24-1130): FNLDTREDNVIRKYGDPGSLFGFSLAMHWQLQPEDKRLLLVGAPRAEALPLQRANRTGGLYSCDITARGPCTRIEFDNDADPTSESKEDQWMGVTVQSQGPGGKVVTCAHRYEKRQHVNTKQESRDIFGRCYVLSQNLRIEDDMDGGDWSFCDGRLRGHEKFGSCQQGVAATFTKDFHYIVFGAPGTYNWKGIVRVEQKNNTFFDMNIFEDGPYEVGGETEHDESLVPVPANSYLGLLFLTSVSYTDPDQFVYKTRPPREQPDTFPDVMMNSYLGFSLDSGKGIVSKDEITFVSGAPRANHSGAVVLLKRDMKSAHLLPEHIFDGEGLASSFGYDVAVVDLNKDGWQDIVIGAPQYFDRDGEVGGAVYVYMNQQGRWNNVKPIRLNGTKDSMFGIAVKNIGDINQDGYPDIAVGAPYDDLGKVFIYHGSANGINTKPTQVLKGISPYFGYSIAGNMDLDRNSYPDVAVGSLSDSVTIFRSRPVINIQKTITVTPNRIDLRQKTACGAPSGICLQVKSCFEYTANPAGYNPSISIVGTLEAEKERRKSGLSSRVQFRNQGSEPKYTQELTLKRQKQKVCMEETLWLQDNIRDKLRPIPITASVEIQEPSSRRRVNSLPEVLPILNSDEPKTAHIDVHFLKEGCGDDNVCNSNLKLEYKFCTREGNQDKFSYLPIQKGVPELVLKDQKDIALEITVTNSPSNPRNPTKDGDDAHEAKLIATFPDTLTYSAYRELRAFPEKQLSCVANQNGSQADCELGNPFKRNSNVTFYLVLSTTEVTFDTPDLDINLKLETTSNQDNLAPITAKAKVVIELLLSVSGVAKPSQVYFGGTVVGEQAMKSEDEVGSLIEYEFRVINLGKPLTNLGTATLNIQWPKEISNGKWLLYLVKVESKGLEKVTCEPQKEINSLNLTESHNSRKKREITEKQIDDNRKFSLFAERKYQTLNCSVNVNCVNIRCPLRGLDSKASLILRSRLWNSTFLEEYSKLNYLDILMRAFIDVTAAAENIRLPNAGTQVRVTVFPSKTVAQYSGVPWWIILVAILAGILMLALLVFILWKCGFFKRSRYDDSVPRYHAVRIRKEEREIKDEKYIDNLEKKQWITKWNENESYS
From the text: We selected integrin α6 as the target of PDAC as it was overexpressed in pancreatic cancer cells ^4 , ^5 and cancerous tissue of patients with PDAC ^4 , ^6 , ^7 with an overexpression rate up to 92%. ^4 Increased integrin α6 levels were associated with stronger PDAC cell invasiveness ^5 and poorer prognosis for patients. ^6 , ^7 Furthermore, the integrin α6β4 dimer was overexpressed in PanIN even at a stage as early as PanIN 1A. ^4 Here, we confirmed that integrin α6 was overexpressed in human PDAC (Figure 1A,B) and increased integrin α6 had poorer prognosis for PDAC patients (Figure 1C). Recently, a peptide CRWYDENAC (dubbed RWY) targeting integrin α6 has been identified ^8 and employed for nanotherapeutics of nasopharyngeal carcinoma ^8 and for PET imaging of hepatocellular carcinoma by our team. ^9 Here, we used the Ala scanning mutagenesis to modify the RWY peptide. R, W, and Y were the three key amino acids within the RWY peptide, since their replacement by an alanine reduced the cellular binding ability of this peptide, both in vitro and in vivo. […]
FIGURE 1 Increased and poorer prognosis of integrin α6 in PDAC and the optimization of a peptide targeting integrin α6. […] D, The binding affinities of seven Ala‐mutated peptides were analyzed by ELISA. […]

[3] = system: spontaneously developed PDAC; assay: in vivo; assay type: in vivo, mouse; settings: KPC mouse, PET 120 min postinjection; n = 5, mean ± SD
Procedure: (§1) Approximately 3.7 × 10^6 Bq (100 μCi) of ^18F‐S5 was intravenously injected to a mouse for PET imaging, and 2.5 mmol/kg of gadolinium‐diethylenetriamine pentaacetic acid was injected for enhanced MR imaging. After 120 min postinjection of ^18F‐S5, PET/MR imaging was obtained by using a hybrid 3.0T PET/MR scanner (uPMR 790; UIH, Shanghai, China).
(§2) However, in the PET/MR imaging, ^18F‐S5 produced high PET signals in the possible location of the tumor (Figure 2A). The uptake of ^18F‐S5 in tumor was quantified as 4.34 ± 1.16 %ID/g (a percentage of the injected dose per gram) (n = 5) and the tumor‐to‐muscle ratio was 4.32 ± 0.65 (Figure 2B). […] The overexpression of integrin α6 in the spontaneously developed PDAC tissue was confirmed using immunohistochemistry (Figure 2D). In addition, ^18F‐S5‐PET/MR imaging could also detect metastatic tumors in KPC, where ^18F‐S5 produced high PET signals in both of the PDAC lesions and the metastatic tumors in the abdominal cavity (Figure S4A‐D). […] Immunohistochemical analysis confirmed the formation of PanIN lesions in the pancreas and increased integrin α6 expression in lesion tissues (Figure 2H).
(§3) FIGURE 2 ^18F‐S5 PET/MR imaging in PDAC and PanIN mouse models. A, Representative cross‐sectional images of PET/MR imaging with ^18F‐S5 of KPC mouse (left) and the 3D image (right). B, Quantification of ^18F‐S5 uptake (%ID/g) by KPC mouse in tumor (4.34 ± 1.16), muscle (1.00 ± 0.17), liver (1.24 ± 0.33), and heart (2.38 ± 0.45), respectively. […] D, The development of PDAC in KPC mouse was confirmed by HE staining (left), and increased integrin α6 expression was confirmed by immunohistochemistry (right). E, Representative cross‐sectional images of PET/MR imaging of KC mouse (left) and the MIP reconstructed image (right). F, Quantification of ^18F‐S5 uptake (%ID/g) by KC mouse in PanIN tissue (2.99 ± 0.52), muscle (0.89 ± 0.13), liver (1.31 ± 0.22), and heart (2.43 ± 0.35), respectively. […] H, The development of PanIN in mice was confirmed by HE staining (left), and the overexpression of integrin α6 in the lesion was analyzed using immunohistochemistry (right) (red arrow: PanIN; black arrow: relatively normal pancreatic tissue) (mean ± SD, the difference was evaluated by Student's t‐test, *P < .05, **P < .01, ***P < .001)

[4] = in vivo; assay type: in vivo, mouse; settings: mouse, in vivo, iv
Procedure: as §1, §2, §3

[5] = system: PanIN; assay: in vivo; assay type: in vivo, mouse; settings: KC mouse, PET 120 min postinjection; mean ± SD
Procedure: as §1, §2, §3

[6] = in vivo
Procedure: as §1

| Compound | blocking effect on Cy5‐RWY [1] | enhanced tumor binding ability [2] | uptake in tumor [3] [%ID/g] | tissue uptake at 2 h ([4]; KC (LSL-Kras^G12D/+; Pdx1-Cre), uptake in heart) [%ID/g] | tissue uptake at 2 h ([4]; KC (LSL-Kras^G12D/+; Pdx1-Cre), uptake in liver) [%ID/g] | tissue uptake at 2 h ([4]; KC (LSL-Kras^G12D/+; Pdx1-Cre), uptake in muscle) [%ID/g] | tissue uptake at 2 h ([4]; KPC (LSL-Kras^G12D/+; Pdx1-Cre; Trp53^fl/fl), uptake in heart) [%ID/g] | tissue uptake at 2 h ([4]; KPC (LSL-Kras^G12D/+; Pdx1-Cre; Trp53^fl/fl), uptake in liver) [%ID/g] | tissue uptake at 2 h ([4]; KPC (LSL-Kras^G12D/+; Pdx1-Cre; Trp53^fl/fl), uptake in muscle) [%ID/g] | uptake in PanIN tissue [5] [%ID/g] | uptake in tumor tissues compared with other tissues and organs [6] |
| --- | --- | --- | --- | --- | --- | --- | --- | --- | --- | --- | --- |
| CRWYDANAC [S5, peptide …, alanine substitution of E in RWY] | highest blocking effect | approximately 1.5 fold |  |  |  |  |  |  |  |  |  |
| C[C@@H]1NC(=O)[C@H](CC(N)=O)NC(=O)[C@H](C)NC(=O)[C@H](CC(=O)O)NC(=O)[C@H](Cc2ccc(O)cc2)NC(=O)[C@H](Cc2c[nH]c3ccccc23)NC(=O)[C@H](CCCNC(=N)N)NC(=O)[C@@H](NC(=O)CCOCCOCCOCCOCCNC(=O)CN2CCN(CC(=O)O)CCN(CC(=O)O)CC2)CSSC[C@@H](C(=O)O)NC1=O [^18F‐S5] ({NOTA-PEG4}-CRWYDANAC-OH; disulfide 1-9 (inferred); N-terminus and C-terminus assumed) |  |  | 4.34 ± 1.16 | 2.43 ± 0.35 | 1.31 ± 0.22 | 0.89 ± 0.13 | 2.38 ± 0.45 | 1.24 ± 0.33 | 1 ± 0.17 | 2.99 ± 0.52 | the highest among all collected tissues and organs except for the kidney |
